Molecular target: MORC2 (UniProt Q9Y6X9)
Experiment: co-IP of Flag-rPGK1, immunoblot
Settings: reference: WT Flag-rPGK1; sites S256

Substance: PGK1 (from UniProt P00558) Flag-rPGK1 S256A
- binding against the reference: lost

— article PMC12603276
